For this assay, the target named is Knob F241R/F243S (knob Fc with F241R/F243S mutations) (human) [IgG part: P0DOX5]. As to the kind of experiment: size exclusion chromatography, against wild-type knob Fc. (In gel filtration, larger molecules generally elute earlier.)

This passage reports Reduction in homodimer content results from patent publication EP2670776B1.

As for “Knob F241R/F243S (knob Fc with F241R/F243S mutations) (from UniProt P0DOX5 223-449)”, the Reduction in homodimer content was 64.5%.
